Reference: patent EP2852397B1

Assays:
human Nav1.7 (human) = human Nav1.7 (human) (UniProt Q15858); assay: cell-based or functional assay
human Nav1.2 (human) = human Nav1.2 (human) (UniProt Q99250); assay: cell-based or functional assay

Substance: recombinant Huwentoxin-IV (peptide)
- IC50, veratridine-induced depolarization inhibition assay (human Nav1.7 (human)): 0.159 µM
- IC50, veratridine-induced depolarization inhibition assay (FRET, FLIPR Tetra) (human Nav1.7 (human)): 0.16 µM
- ratio of IC50 for Nav1.2 to IC50 for Nav1.7 (human Nav1.7 (human)): 2.14
- IC50, veratridine-induced depolarization inhibition assay (human Nav1.2 (human)): 0.342 µM
